For this assay, the target named is actin filaments (actin from Gallus gallus skeletal muscle) (Gallus gallus (chicken)), P68139. Kind of assay: co-sedimentation; 4 µM EGFP–SFM peptide with 0–200 µM actin filaments in F buffer, 1 h at room temperature, 100,000g for 30 min; pellet read by anti-EGFP western blot; one-site specific binding fit; apparent.

RRSVGELRLLFEARCAAVAAAA (modifications not checked) [EGFP-tagged ITPKA SFM peptide, P23677 1-461]: the Kd came out at 2000 nM.

The values are drawn from paper PMC13364712.
